Laboratory results as given in paper PMC6224477.

B1: endogenous ZNF598 (enzyme)
chain: MAAAGGAEGRRAALEAAAAAAPERGGGSCVLCCGDLEATALGRCDHPVCYRCSTKMRVLCEQRYCAVCREELRQVVFGKKLPAFATIPIHQLQHEKKYDIYFADGKVYALYRQLLQHECPRCPELPPFSLFGDLEQHMRRQHELFCCRLCLQHLQIFTYERKWYSRKDLARHRMQGDPDDTSHRGHPLCKFCDERYLDNDELLKHLRRDHYFCHFCDSDGAQDYYSDYAYLREHFREKHFLCEEGRCSTEQFTHAFRTEIDLKAHRTACHSRSRAEARQNRHIDLQFSYAPRHSRRNEGVVGGEDYEEVDRYSRQGRVARAGTRGAQQSRRGSWRYKREEEDREVAAAVRASVAAQQQEEARRSEDQEEGGRPKKEEAAARGPEDPRGPRRSPRTQGEGPGPKETSTNGPVSQEAFSVTGPAAPGCVGVPGALPPPSPKLKDEDFPSLSASTSSSCSTAATPGPVGLALPYAIPARGRSAFQEEDFPALVSSVPKPGTAPTSLVSAWNSSSSSKKVAQPPLSAQATGSGQPTRKAGKGSRGGRKGGPPFTQEEEEDGGPALQELLSTRPTGSVSSTLGLASIQPSKVGKKKKVGSEKPGTTLPQPPPATCPPGALQAPEAPASRAEGPVAVVVNGHTEGPAPARSAPKEPPGLPRPLGSFPCPTPQEDFPALGGPCPPRMPPPPGFSAVVLLKGTPPPPPPGLVPPISKPPPGFSGLLPSPHPACVPSPATTTTTKAPRLLPAPRAYLVPENFRERNLQLIQSIRDFLQSDEARFSEFKSHSGEFRQGLISAAQYYKSCRDLLGENFQKVFNELLVLLPDTAKQQELLSAHTDFCNREKPLSTKSKKNKKSAWQATTQQAGLDCRVCPTCQQVLAHGDASSHQALHAARDDDFPSLQAIARIIT
B2: ZNF598-TEV-3xFlag (human) (enzyme)
chain: B1 chain

Columns and labels:
[1] = molecular target: ribosomes (mono- and poly-ribosomes) of HEK293 cells (human (endogenous in HEK293))
[2] = molecular target: di-ribosome translation complex stalled on a poly(A)-containing transcript in rabbit reticulocyte lysate (rabbit (endogenous in reticulocyte lysate)); experiment: pull-down + co-sedimentation; poly(A)-containing transcript translated in RRL supplemented with FLAG-tagged ZNF598; translation complexes affinity purified via the Twin-Strep tag of the nascent chain (StrepTactin, RNC buffer: 50 mM HEPES pH 7.6, 100 mM KOAc, 5 mM Mg(OAc)2, biotin elution), then sucrose gradient; immunoblot for ZNF598, uL2, eS24

Binder	ubiquitinated eS10 (immunoblot) in HEK293 cells pre-treated 15 min with low concentrations of anisomycin, emetine or didemnin B [1]	percent of ZNF598 co-fractionating with ribosomes [2]
B1	10%	–
B2	–	70 to 80%
